Source: patent US20140271639A1, “Semaphorin 7a Induced Lung Fibrogenesis Occurs in a CD-4-Dependent, Macrophage Dependent Manner” (YALE UNIVERSITY, priority 2011, published 2014)

System: CD14+ monocytes
Assay: Sema 7a stimulation of CD14+ monocytes; CD206 expression via flow cytometry
Format: cell-based, human
Protocol: Antibodies against mouse F4/80, CD11b, and CD11c, and against human CD4, CD8, and CD14 were purchased from BD Pharmingen. CD206 antibody was purchased from Serotec. Semaphorin 7a antibody was obtained from R & D Systems. Appropriate isotype controls were obtained from BD Pharmingen. Flow cytometry and cell sorting were performed using a BD FACSCalibur. Data were analyzed using Flow Jo v 7.5 software (Tree Star, Inc, Ashland, Oreg.). For all analyses, isotype control staining was subtracted from true antibody staining to determine the percentage of positive cells. When necessary this percentage was then multiplied by the total cell count in the sample to derive absolute quantity of the cell population of interest.
Ficoll separation and processing of PBMCs for FACS was performed as we have previously described (Gan et al., 2011, Arthritis Rgeum. 63:2484-2494).
CD14+ monocytes were obtained via MACS-enrichment as have been previously described. These cells were stimulated with recombinant Sema 7a (Abnova, Taiwan) or human serum albumin (Sigma) as previously described (Gan et al., 2011, Arthritis Rgeum. 63:2484-2494). Lentivirally-mediated shRNA knockdown of Plexin C1 expression was performed using specific anti-Plexin shRNA or control “scramble” shRNA (Santa Cruz Biotech, Santa Cruz […].) as previously described (Gan et al., 2011, Arthritis Rgeum. 63:2484-2494).

B1: recombinant Sema 7a protein: recombinant Sema 7a (Abnova, Taiwan) used to stimulate CD14+ monocytes (protein, UniProt O75326 45-648, looked up)
Semaphorin-7A: QGHLRSGPRIFAVWKGHVGQDRVDFGQTEPHTVLFHEPGSSSVWVGGRGKVYLFDFPEGKNASVRTVNIGSTKGSCLDKRDCENYITLLERRSEGLLACGTNARHPSCWNLVNGTVVPLGEMRGYAPFSPDENSLVLFEGDEVYSTIRKQEYNGKIPRFRRIRGESELYTSDTVMQNPQFIKATIVHQDQAYDDKIYYFFREDNPDKNPEAPLNVSRVAQLCRGDQGGESSLSVSKWNTFLKAMLVCSDAATNKNFNRLQDVFLLPDPSGQWRDTRVYGVFSNPWNYSAVCVYSLGDIDKVFRTSSLKGYHSSLPNPRPGKCLPDQQPIPTETFQVADRHPEVAQRVEPMGPLKTPLFHSKYHYQKVAVHRMQASHGETFHVLYLTTDRGTIHKVVEPGEQEHSFAFNIMEIQPFRRAAAIQTMSLDAERRKLYVSSQWEVSQVPLDLCEVYGGGCHGCLMSRDPYCGWDQGRCISIYSSERSVLQSINPAEPHKECPNPKPDKAPLQKVSLAPNSRYYLSCPMESRHATYSWRHKENVEQSCEPGHQSPNCILFIENLTAQQYGHYFCEAQEGSYFREAQHWQLLPEDGIMAEHLLGHACALA
- response to Sema 7a stimulation (cell surface expression of CD206) (IPF monocytes, p=0.16, FIGS. 6A and 6B): failed to respond
- increase in cell surface expression of CD206 (normal human monocytes, p=0.04, FIGS. 6A and 6B): 94.3%
